Test results as given in patent publication US20190359687A1 (Bayer, published 2019).
No end group written: not given here. *: point of attachment. Biotin = O=C1N[C@H]2[C@H](CS[C@H]2CCCCC(=O)*)N1

T1: GP7 (human)
T1 peptide: Biotin-SVRTVYPP

T2: GP10 (human)
T2 peptide: Biotin-TVYPPEEE

T3: GP11 (human)
T3 peptide: Biotin-VYPPEEET

T4: GP12 (human)
T4 peptide: Biotin-YPPEEETG

T5: GP13 (human)
T5 peptide: Biotin-PPEEETGE

T6: GP5-7 (human, biotin at the N-terminus)
T6 construct: GP5 with alanine at position 7 (V7A), already in the entry
T6 peptide: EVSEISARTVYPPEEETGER

T7: GP5-8 (human, biotin at the N-terminus)
T7 construct: GP5 with alanine at position 8 (R8A), already in the entry
T7 peptide: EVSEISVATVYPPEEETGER

T8: GP5-9 (human, biotin at the N-terminus)
T8 construct: GP5 with alanine at position 9 (T9A), already in the entry
T8 peptide: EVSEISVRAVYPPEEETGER

T9: GP5-10 (human, biotin at the N-terminus)
T9 construct: GP5 with alanine at position 10 (V10A), already in the entry
T9 peptide: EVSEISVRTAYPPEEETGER

T10: GP5-11 (human, biotin at the N-terminus)
T10 construct: GP5 with alanine at position 11 (Y11A), already in the entry
T10 peptide: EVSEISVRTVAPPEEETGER

T11: GP5-12 (human, biotin at the N-terminus)
T11 construct: GP5 with alanine at position 12 (P12A), already in the entry
T11 peptide: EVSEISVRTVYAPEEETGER

T12: GP5-13 (human, biotin at the N-terminus)
T12 construct: GP5 with alanine at position 13 (P13A), already in the entry
T12 peptide: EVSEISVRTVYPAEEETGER

T13: GP5-14 (human, biotin at the N-terminus)
T13 construct: GP5 with alanine at position 14 (E14A), already in the entry
T13 peptide: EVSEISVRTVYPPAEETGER

T14: GP5-15 (human, biotin at the N-terminus)
T14 construct: GP5 with alanine at position 15 (E15A), already in the entry
T14 peptide: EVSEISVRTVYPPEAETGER

T15: GP5-16 (human, biotin at the N-terminus)
T15 construct: GP5 with alanine at position 16 (E16A), already in the entry
T15 peptide: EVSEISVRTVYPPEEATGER

T16: GP5-17 (human, biotin at the N-terminus)
T16 construct: GP5 with alanine at position 17 (T17A), already in the entry
T16 peptide: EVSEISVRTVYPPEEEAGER

T17: GP5-18 (human, biotin at the N-terminus)
T17 construct: GP5 with alanine at position 18 (G18A), already in the entry
T17 peptide: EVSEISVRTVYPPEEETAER

T18: GP5-19 (human, biotin at the N-terminus)
T18 construct: GP5 with alanine at position 19 (E19A), already in the entry
T18 peptide: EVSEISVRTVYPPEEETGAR

T19: GP5-20 (human, biotin at the N-terminus)
T19 construct: GP5 with alanine at position 20 (R20A), already in the entry
T19 peptide: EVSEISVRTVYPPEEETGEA

T20: GP5-1 (human, biotin at the N-terminus)
T20 construct: GP5 with alanine at position 1 (E1A), already in the entry
T20 peptide: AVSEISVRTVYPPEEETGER

T21: GP5-2 (human, biotin at the N-terminus)
T21 construct: GP5 with alanine at position 2 (V2A), already in the entry
T21 peptide: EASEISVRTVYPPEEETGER

T22: GP5-3 (human, biotin at the N-terminus)
T22 construct: GP5 with alanine at position 3 (S3A), already in the entry
T22 peptide: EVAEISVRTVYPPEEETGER

T23: GP5-4 (human, biotin at the N-terminus)
T23 construct: GP5 with alanine at position 4 (E4A), already in the entry
T23 peptide: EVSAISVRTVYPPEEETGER

T24: GP5-5 (human, biotin at the N-terminus)
T24 construct: GP5 with alanine at position 5 (I5A), already in the entry
T24 peptide: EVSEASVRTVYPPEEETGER

T25: GP5-6 (human, biotin at the N-terminus)
T25 construct: GP5 with alanine at position 6 (S6A), already in the entry
T25 peptide: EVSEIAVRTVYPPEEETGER

T26: recombinant human GPA ectodomain (human, UniProt P02724 20-91)
T26 construct: also called recombinant hGPA ECD; recGPA
T26 sequence: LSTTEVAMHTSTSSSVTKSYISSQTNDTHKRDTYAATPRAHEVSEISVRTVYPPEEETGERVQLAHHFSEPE

T27: purified human glycophorin A protein (Sigma, cat # G5017) (human, UniProt P02724 20-150)
T27 construct: mature; also called Sigma hGPA; Sigma GPA
T27 sequence (looked up): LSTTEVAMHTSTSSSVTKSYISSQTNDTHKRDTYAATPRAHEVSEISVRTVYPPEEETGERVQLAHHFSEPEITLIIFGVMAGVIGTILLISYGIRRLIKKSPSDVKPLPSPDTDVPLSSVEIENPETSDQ

T28: human glycophorin A in the red blood cell membrane (human, UniProt P02724 20-150)
T28 construct: whole, on cells; used for intact RBC, isolated RBC membranes and transfected cells; the assay field tells which; also called GPA; hGPA
T28 sequence (looked up): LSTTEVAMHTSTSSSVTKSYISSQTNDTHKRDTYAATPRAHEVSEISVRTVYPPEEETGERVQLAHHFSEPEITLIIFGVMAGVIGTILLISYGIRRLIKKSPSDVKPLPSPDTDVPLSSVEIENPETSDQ

T29: asialo hGPA (desialylated human GPA) (human, UniProt P02724 20-150, desialylated)
T29 construct: mature; also called asialo-GPA
T29 sequence (looked up): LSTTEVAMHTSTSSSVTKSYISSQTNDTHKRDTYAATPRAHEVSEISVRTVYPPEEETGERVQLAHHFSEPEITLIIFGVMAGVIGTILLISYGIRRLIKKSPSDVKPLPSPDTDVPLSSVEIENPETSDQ


Assays:
GP7 = molecular target: T1, GP7; assay: peptide ELISA, summary of Table 23
Description: (§1) These peptides were attached to the surface of a streptavidin coated plate via a biotin moiety that was present at the N-terminus of each peptide.

GP10 = molecular target: T2, GP10; assay: peptide ELISA, summary of Table 23
Description: as §1

GP11 = molecular target: T3, GP11; assay: peptide ELISA, summary of Table 23
Description: as §1

GP12 = molecular target: T4, GP12; assay: peptide ELISA, summary of Table 23
Description: as §1

GP13 = molecular target: T5, GP13; assay: peptide ELISA, summary of Table 23
Description: as §1

GP5-7 = molecular target: T6, GP5-7; assay: ELISA, biotin-peptide on streptavidin plate, Fab 0.5 ug/ml
GP5-8 = molecular target: T7, GP5-8; assay: as above
GP5-9 = molecular target: T8, GP5-9; assay: as above
GP5-10 = molecular target: T9, GP5-10; assay: as above
GP5-11 = molecular target: T10, GP5-11; assay: as above
GP5-12 = molecular target: T11, GP5-12; assay: as above
GP5-13 = molecular target: T12, GP5-13; assay: as above
GP5-14 = molecular target: T13, GP5-14; assay: as above
GP5-15 = molecular target: T14, GP5-15; assay: as above
GP5-16 = molecular target: T15, GP5-16; assay: as above
GP5-17 = molecular target: T16, GP5-17; assay: as above
GP5-18 = molecular target: T17, GP5-18; assay: as above
GP5-19 = molecular target: T18, GP5-19; assay: as above
GP5-20 = molecular target: T19, GP5-20; assay: as above
GP5-1 = molecular target: T20, GP5-1; assay: as above
GP5-2 = molecular target: T21, GP5-2; assay: as above
GP5-3 = molecular target: T22, GP5-3; assay: as above
GP5-4 = molecular target: T23, GP5-4; assay: as above
GP5-5 = molecular target: T24, GP5-5; assay: as above
GP5-6 = molecular target: T25, GP5-6; assay: as above
[1] = molecular target: T26, recombinant human GPA ectodomain; assay: SPR, IgG
[2] = molecular target: T27, purified human glycophorin A protein …; assay: ELISA, hGPA
[3] = molecular target: T28, human glycophorin A in the red blood …; assay: FACS, hu RBC
dog red blood cells = molecular target: T30, dog red blood cells (dog); assay: FACS, dog RBC
T30 construct: also called dog RBC
Protocol: (§2) Hybridomas were generated from the spleen cells of these mice and these hybriomas were screened first by fluorescence activated cell sorting (FACS) against isolated human and monkey (Cynomolgus monkey and Rhesus monkey) red blood cells (RBC) and then by ELISA against purified human glycophorin A protein (GPA). Isolated RBC were prepared from whole blood from normal human, cynomolgus monkey, and beagle dog, were anticoagulant with sodium heparin (Bioreclamation). 2-3 mL of whole blood was loaded gently on the top of 3 mL Ficoll Plus (Sigma Aldrich) then centrifuged at 500 g for 20 min at room temperature (RT). The RBC pellets were washed 3 times with 10 mL of PBS, and centrifuge 400 g for 10 min at RT. RBC pellets were re-suspended in PBS at the same total volume as the original blood volume to achieve the same RBC cell density as in whole blood and stored at 4° C. Purified human glycophorin A protein was obtained from Sigma Aldrich and coated on ELISA plates at 2 ug/ml. Binding of antibodies to human GPA was detected using appropriate secondary antibodies using methods well known in the art.

[4] = molecular target: T31, Cynomolgus monkey glycophorin A on Cynomolgus monkey red blood cells (Cynomolgus monkey); assay: FACS, Cyno RBC
T31 construct: whole, on cells; also called Cyno RBC; Cyno GPA
Protocol: as §2

[5] = molecular target: T27, purified human glycophorin A protein …; assay: ELISA, purified IgG
Protocol: (§3) The “Sigma GPA” is a crude preparation of human GPA extracted from human red blood cells and is therefore representative of the highly glycosylated form of the native protein.
(§4) EC 50 values were determined from a dilution curve of the antibody. Sigma GPA is partially purified GPA extracted from human red blood cells and purchased from Sigma Chemical Company (cat # G5017), asialo hGPA is human GPA that was desialylated and ECD is the recombinantly expressed ectodomain which is the extracellular portion of GPA.

[6] = molecular target: T29, asialo hGPA (desialylated human GPA); assay: ELISA, purified IgG
Protocol: as §3, §4

[7] = molecular target: T26, recombinant human GPA ectodomain; assay: ELISA, purified IgG
Protocol: as §3, §4

[8] = molecular target: T28, human glycophorin A in the red blood …; assay: FACS on RBC of huGPA/HemA transgenic mice (muTGRBC), 1E+6 RBC/mL, scFv titrated

binding result (GP7) | binding result (GP10) | binding result (GP11) | binding result (GP12) | binding result (GP13) | binding signal (ELISA) (GP5-7) | binding signal (ELISA) (GP5-8) | binding signal (ELISA) (GP5-9) | binding signal (ELISA) (GP5-10) | binding signal (ELISA) (GP5-11) | binding signal (ELISA) (GP5-12) | binding signal (ELISA) (GP5-13) | binding signal (ELISA) (GP5-14) | binding signal (ELISA) (GP5-15) | binding signal (ELISA) (GP5-16) | binding signal (ELISA) (GP5-17) | binding signal (ELISA) (GP5-18) | binding signal (ELISA) (GP5-19) | binding signal (ELISA) (GP5-20) | binding signal (ELISA) (GP5-1) | Binder | also measured
no binding | no binding | no binding | no binding | no binding | 6700 | 6790 | 6810 | 5910 | 1 | 6450 | 6570 | 1280 | 6720 | 6540 | 6870 | 6400 | 6470 | 6440 | 6210 | TPP-7790 Fab (Fab, V domains shown, Tested as Fab with a 6xHIS tag) VH: EVQLVQSGAEVKKPGASVKVSCKASGYTFTTYAIHWVRQAPGQGLEWMGYINPSSGYTRYNPKFKHRVTMTRDKSTSTAYMELRSLRSDDTAVYYCWTGTRDYWGQGTTVTVSS VL: DIQLTQSPSFLSASVGDRVTITCRASSSVRYIYWFQQKPGKAPKLLIYATSFLQSGVPSRFSGSGSGTEYTLTISSLQPEDFATYYCHQRNSFPYTFGQGTKLEIK | binding signal (ELISA) (GP5-2): 6360; binding signal (ELISA) (GP5-3): 6680; binding signal (ELISA) (GP5-4): 6540; binding signal (ELISA) (GP5-5): 6270; binding signal (ELISA) (GP5-6): 6520
no binding | no binding | no binding | no binding | no binding | 6690 | 6700 | 7270 | 6210 | 2 | 6790 | 6960 | 2670 | 7250 | 6680 | 7410 | 7150 | 6980 | 7170 | 6800 | TPP-7792 Fab (Fab, V domains shown, Tested as Fab with a 6xHIS tag) VH: EVQLVQSGAEVKKPGASVKVSCKASGYTFTTYAIHWVRQAPGQGLEWMGYINPSSGYTRYNPKFKGRVTMTRDKSTSTAYMELRSLRSDDTAVYYCWTGTRDYWGQGTTVTVSS VL: DIQLTQSPSFLSASVGDRVTITCRASSSVRYIYWFQQKPGKAPKLLIYATSFRQSGVPSRFSGSGSGTEYTLTISSLQPEDFATYYCHQRNSFPYTFGQGTKLEIK | binding signal (ELISA) (GP5-2): 6700; binding signal (ELISA) (GP5-3): 7370; binding signal (ELISA) (GP5-4): 6630; binding signal (ELISA) (GP5-5): 7400; binding signal (ELISA) (GP5-6): 6660
 |  |  |  |  |  |  |  |  |  |  |  |  |  |  |  |  |  |  |  | 13G7G1/C3 (antibody, V domains shown, as m8; also called TPP-3423) VH: RVQLQQSGAELARPGASVKMSCKASGYTFTNYAMHWVKQRPGQGLEWIGYINPKSDNTNYNQKFKDKATLTTDKSSATAYMQLSSLTSDDSAVYYCQTGTRDYWGQGTTLTVSS VL: HIVLTQSPAIMSASPGEKVTIFCSASSSITYVYWFQQKPGTSPKLWIYSTSSLPSGVPARFSGSGSGTSYSLTISRMEAEDAATYYCHQRNSYPFTFGSGTKLEIK | Kd [1]: 5.3 nM; koff [1]: 0.000405 s⁻¹; kon [1]: 76400 M⁻¹ s⁻¹; t½ [1]: 28.5 min; EC50 [2]: 0.402 nM; FACS signal [3]: 2880 relative flourescence units; FACS signal (dog red blood cells): 1.14 relative flourescence units; FACS signal [4]: 294 relative flourescence units; EC50 [5]: 1.45 nM; EC50 [6]: 1.24 nM; EC50 [7]: 1.43 nM
 |  |  |  |  |  |  |  |  |  |  |  |  |  |  |  |  |  |  |  | TPP-7792 scFv (scFv, as m101 (tag, order, linker)) scFv: DIQLTQSPSFLSASVGDRVTITCRASSSVRYIYWFQQKPGKAPKLLIYATSFRQSGVPSRFSGSGSGTEYTLTISSLQPEDFATYYCHQRNSFPYTFGQGTKLEIKEVQLVQSGAEVKKPGASVKVSCKASGYTFTTYAIHWVRQAPGQGLEWMGYINPSSGYTRYNPKFKGRVTMTRDKSTSTAYMELRSLRSDDTAVYYCWTGTRDYWGQGTTVTVSS | EC50 (read off the curve) [8]: ~20 µg/mL
